{"source": "paper PMC5466068", "origin": "cited, not measured here", "biological_target": "Cys32 (UniProt position 32, FSATWCGPCKM)", "assay": "NMR", "conditions": "not stated (a free thiol at the catalytic Cys implies the reduced form)", "data": [{"substance": "Thioredoxin-1 (Thrx-1) (Homo sapiens)", "values": [{"measurement": "pKa", "value": "~6.3"}]}]}
